Experimental data as given in article PMC8429438.

Assays:
[1] = molecular target: wild-type tau repeat domain (WT tauRD) (human); assay: MST; Cy5-labelled wild-type or mutant tau/tauRD titrated with a serial two-fold dilution of DnaJC7 or single DnaJC7 domains; Monolith NT.115; technical triplicates; fit in PALMIST with a 1:1 binding model
[2] = molecular target: P301L tau repeat domain (P301L tauRD) (human); assay: as above

B1: DnaJC7 (full-length, wild type, recombinant) (natural protein)
chain: MAAAAECDVVMAATEPELLDDQEAKREAETFKEQGNAYYAKKDYNEAYNYYTKAIDMCPKNASYYGNRAATLMMLGRFREALGDAQQSVRLDDSFVRGHLREGKCHLSLGNAMAACRSFQRALELDHKNAQAQQEFKNANAVMEYEKIAETDFEKRDFRKVVFCMDRALEFAPACHRFKILKAECLAMLGRYPEAQSVASDILRMDSTNADALYVRGLCLYYEDCIEKAVQFFVQALRMAPDHEKACIACRNAKALKAKKEDGNKAFKEGNYKLAYELYTEALGIDPNNIKTNAKLYCNRGTVNSKLRKLDDAIEDCTNAVKLDDTYIKAYLRRAQCYMDTEQYEEAVRDYEKVYQTEKTKEHKQLLKNAQLELKKSKRKDYYKILGVDKNASEDEIKKAYRKRALMHHPDRHSGASAEVQKEEEKKFKEVGEAFTILSDPKKKTRYDSGQDLDEEGMNMGDFDPNNIFKAFFGGPGGFSFEASGPGNFFFQFG
B1 was tested, and the Kd [1] was 2.2 µM and the Kd [2] was 6.2 µM.
